The record followed here is patent publication US10758615B2, “Human monoclonal antibodies against orexin receptor type 1” (INSERM (INSTITUT NATIONAL DE LA SANTE ET DE LA RECHERCHE …, priority 2015, dated 2020).

For assay [1], the system named is HEK-OX1R cells expressing recombinant OX1R. Briefly: Apoptosis in HEK-OX1R cells (annexin V-PE binding, Guava nexin kit). Format: cell-based, human.
The subject of another assay is HT-29 cells. Briefly: Growth of tumors from xenografted human HT-29 cells in nude mice. The note with it: ip, 2 injections/week, Day 43. The class given is in vivo. On the procedure: FIG. 8: Effect of inoculation of orexin-A and C2 antibody on the growth of tumors developed by xenografted human HT-29 cells in nude mice. Colon adenocarcinoma derived cells, HT-29, were inoculated in the flank of nude mice at day 0. Mice were injected at day 1 (2 injections/week) intraperitoneally with 100 μl of orexin-A solution (1.4 μmoles of orexin-A/Kg (white circles)) or with 100 μl of C2 antibody solution (0.065 μmoles/Kg (black triangles) or 0.02 μmoles/Kg (white triangles)) or with 100 μl of PBS (black circles) for control. The inventors have tested the ability of C2 antibody to inhibit the tumor development of xenografted nude mice with the human colon adenocarcinoma cell line, HT-29. After subcutaneous injection of 1.5×10^6 HT-29 cells in mice, animals were treated by 2 intraperitoneal (ip) injection/week of Orexin-A (100 μg/injection corresponding to 1.4 μmoles of orexin-A/Kg) or two doses of C2 antibody (200 μg/injection or 50 μg/injection corresponding to 0.065 μmoles/Kg and 0.02 μmoles/Kg, respectively). Control was determined by ip injection of 100 μl of PBS. The experiment was conducted during 45 days and the tumor volume was estimated by measuring the short and long axes of developedtumors each ⅔ days.
A general note: Xenograft models place foreign cells or tissue in a host animal.

Another assay concerns AsPC-1 cells. Briefly: Cell growth of pancreas cancer cell line AsPC-1. The class given is cell-based. The note with it: 0.1 μM, 48 h. The procedure:
(§1) Cells were treated for 48 h with 0.1 μM of each compound and then cells were counted. Results were expressed as the percentage of untreated cell number (Control).
(§2) We have tested the ability of antibodies to inhibit the cellular growth in cancer cell lines derived from colon cancer (SW48, LoVo and HCT-116 cells) and pancreas cancer (AsPC-1 cells). […] D4 and H7 have a weak effect. […] As previously described (see above) orexins are able to induce a mitochondrial apoptosis in cancer cell lines. We test the ability of antibodies to induce apoptosis in HEK-OX1R cells and colonic cancer cell line LoVo. […] This effect was dose-dependent. Indeed when HEK-OX1R cells were treated with 0.01 μM of C2 antibody, cell apoptosis was only of 6±0.7% of total cells.

Another assay relates to LoVo cancer cell line. Put plainly: Apoptosis in LoVo cancer cell line. The class given is cell-based.
Source text: as §2

Assay [2] relates to CHO cells lines transfected with OX1R of rat. Put plainly: Cross-reaction: cells transfected with rat OX1R. The class given is cell-based. To be noted: 0.1 μM, 48 h.
The test system of assay [3] is HEK-OX1R cells expressing recombinant OX1R. Briefly: Cell growth of HEK-OX1R cells (cell counting). The class given is cell-based, human. The note with it: 0.1 μM, 48 h.
For another assay, the system named is LoVo cells. Put plainly: Cell growth of colon cancer cell line LoVo. Format: cell-based. To be noted: 0.1 μM, 48 h. The procedure: as §1, §2
The test system of a further assay is SW48 cells. Briefly: Cell growth of colon cancer cell line SW48. Format: cell-based. To be noted: 0.1 μM, 48 h. The procedure: as §1, §2
The subject of assay [4] is CHO cells lines transfected with OX1R of mouse. Briefly: Cross-reaction: cells transfected with mouse OX1R. Format: cell-based. To be noted: 0.1 μM, 48 h.
Where [5] appears, read: 100 μg/injection (1.4 μmoles/Kg).
The mark [6] stands for this setting: 200 μg/injection (0.065 μmoles/Kg).
[7] abbreviates: low dose, 50 μg/injection (0.02 μmoles/Kg).

Turning to `O=S(=O)(O)c1ccc2cc(N=Nc3cc(S(=O)(=O)O)c4cccnc4c3O)ccc2c1` [NSC-87877, reference compound], in assay [1] (NSC-87877 50 μM), the “effect of SHP-2 inhibitor on orexin-induced apoptosis” value is “blocks orexin-induced apoptosis”.

Regarding “Orexin-A (QPLPDCCRQKTCSCRLYELLHGAGNHAAGILTL) [orexin A, a 33 amino acid neuropeptide, native OX1R ligand, reference compound]”, in the assay on HT-29 cells (setting [5]), the “inhibition of tumor growth” value was “about 65%” and the tumor volume is on record as roughly 570±100 mm^3.

B1: C2: human monoclonal anti-OX1R antibody from phage display; VH SEQ ID NO:1, VL SEQ ID NO:2 (antibody, V domains shown)
VH: EVQLVESGGSLVKPGGSLRLSCAASGFTFSNSYMNWVRQAPGKGLEWISSIYGSSRYIDYADFVKGRFTISRDNATNSLYLQMNSLRAEDTAVYYCVRSSSYYGSGMDVWGRGTLVTVSS
VL: QSVLTQPASVSGSPGQSITISCAGTSSDVGGYGSVSWYQQHPGKAPKLMIYYDSYRPSGVSNRFSGSKSGNTASLTISGLQAEDEADYYCSSNTNSSTRVFGGGTKLAVLG
modifications: Synthetic VH sequence of C2; Synthetic VL sequence of C2
On to B1, for which, in the assay on AsPC-1 cells, the “inhibition of cell growth in AsPC-1 cells” value is “cell growth inhibition similar to OxB effect”. Moreover, in the assay with LoVo cancer cell line (0.01 μM), the “apoptotic response in LoVo cancer cell line” value was “strongly reduce the apoptotic response”. Further, the “induction of apoptosis in LoVo cancer cell line” value with LoVo cancer cell line (0.1 μM, 48 h) is recorded as “able to induce apoptosis”. In addition, in the assay on HT-29 cells (setting [6]), the “reduction of tumor development” value is “about 60%”. The figures for the tumor volume in the assay on HT-29 cells (setting [6]) and in the assay on HT-29 cells (setting [7]) were roughly 650±98 mm^3 and roughly 885±130 mm^3, respectively. Moreover, in the assay on HT-29 cells (setting [7]), the “inhibition of tumor growth” value worked out at 45%. Besides, the “apoptosis in HEK-OX1R cells, % of total cells” value in [1] (0.01 μM) was found to be 6±0.7%; in assay [1] (0.1 μM, 48 h), 16±2%. Moreover, the “apoptosis and growth inhibition in the presence of SHP inhibitor” value in [1] (with NSC 87877) is on record as “totally abolished”. In assay [2], the “promotion of apoptosis of cells transfected with rat OX1R” value is reported as “able to promote apotosis”. Moreover, in [3] (versus untreated cells), the “reduction of HEK-OX1R cell number” value is reported as roughly 37±3%. Besides, the “inhibition of HEK-OX1R cellular growth in the presence of SHP inhibitor” value in [3] (with 50 μM NSC 87877) is reported as “totally reversed”. Besides, in the assay on LoVo cells, the “inhibition of cell growth in LoVo cells” value is listed as “inhibit the cell growth in LoVo cells similarly to OxB”. In the assay with SW48 cells, the “inhibition of cell growth in SW48 cells” value is on record as “inhibit the cell growth in SW48 cells similarly to OxB”. In addition, the “promotion of apoptosis of cells transfected with mouse OX1R” value in assay [4] is on record as “able to promote apotosis”.
